US11312773B2, “Anti-PD-L1 antibody” (Fuso Pharmaceutical Industries, Ltd., priority 2016, dated 2022)

Tests used:
[1] = system: porcine PD-1/PD-L1 binding; experiment: Porcine PD-1/PD-L1 binding inhibition test (PD-1-EGFP COS-7 cells and PD-L1-Ig); details: antibody 0-50 μg/ml, porcine PD-L1-Ig 5 μg/ml
Protocol: Using ovine PD-1-EGFP expressing COS-7 cells and ovine PD-L1-Ig recombinant protein, or porcine PD-1-EGFP expressing COS-7 cells and porcine PD-L1-Ig recombinant protein, inhibition of ovine or porcine PD-1/PD-L1 binding by rat anti-bovine PD-L1 antibody […] was tested. […] Subsequently, the antibody 4G12 was reacted with 2×10^5 ovine PD-1-EGFP expressing COS-7 cells or porcine PD-1-EGFP expressing COS-7 cells at 37° C. for 30 min. After washing, ovine PD-L1-Ig or porcine PD-L1-Ig bound to cell surfaces was detected with Alexa Fluor 647-labeled anti-rabbit IgG (H+L) goat F(ab′)2 (Life Technologies). For analysis, FACS Verse (BD Biosciences) was used. As a negative control antibody, rat IgG2a (κ) isotype control (BD Biosciences) was used. Taking the proportion of PD-L1-Ig bound cells without antibody addition as 100%, the proportion of PD-L1-Ig bound cells at each antibody concentration was shown as relative value.

[2] = system: ovine PD-L1; experiment: Flow cytometry reactivity with ovine PD-L1-EGFP expressing COS-7 cells; assay type: binding; details: 10 μg/ml
Protocol: COS-7 cells were subcultured at a density of 5×10^4 cells/cm^2 in 6-well plates, and then cultured overnight in RPMI 1640 medium containing 10% inactivated fetal bovine serum and 0.01% L-glutamine at 37° C. in the presence of 5% CO2. The pEGFP-N2-ovPD-1, pEGFP-N2-ovPD-L1, pEGFP-N2-poPD-1, pEGFP-N2-poPD-L1 or pEGFP-N2 (negative control) was introduced into COS-7 cells at 0.4 μg/cm^2 using Lipofectamine 2000 (Invitrogen). The cells were cultured for 48 hours (ovPD-1-EGFP expressing cell, ovPD-L1-EGFP expressing cell, poPD-1-EGFP expressing cell, and poPD-L1-EGFP expressing cell). In order to confirm the expression of ovine PD-1, ovine PD-L1, porcine PD-1 and porcine PD-L1 in the thus prepared expressing cells, intracellular localization of EGFP was visualized with an inverted confocal laser microscope LSM700 (ZEISS) or an all-in-one fluorescence microscope BZ-9000 (KEYENCE). It was confirmed by flow cytometry that rat anti-bovine PD-L1 monoclonal antibody cross-reacts with ovine and porcine PD-LL. […] After washing, the cells were reacted with allophycocyanine-labeled anti-rat Ig goat antibody (Beckman Coulter) at room temperature for 30 min. For analysis, FACS Verse (BD Bioscience) was used. As a negative control antibody, rat IgG2a (κ) isotype control (BD Bioscience) was used. For every washing operation and dilution of antibodies, 1% bovine serum albumin supplemented PBS was used.

[3] = system: PBMCs of BLV-infected cattle; experiment: Biological activity test: IFN-γ production of PBMCs of BLV-infected cattle to BLV antigen; details: 10 μg/ml antibody, 2% FLK-BLV supernatant, 6 days, n=10
[4] = system: canine PD-L1; experiment: Flow cytometry cross-reactivity with canine PD-L1 expressing cells; assay type: binding
Protocol: COS-7 cells were subcultured at a density of 5×10^4 cells/cm^2 in 6-well plates, and then cultured overnight in RPMI 1640 medium containing 10% inactivated fetal bovine serum and 0.01% L-glutamine at 37° C. in the presence of 5% CO2. The pEGFP-N2-cPD-1, pEGFP-N2-cPD-L1 or pEGFP-N2 (negative control) was introduced into COS-7 cells at 0.4 μg/cm^2 using Lipofectamine 2000 (Invitrogen). The cells were cultured for 48 hours (cPD-1-EGFP expressing cell and cPD-L1-EGFP expressing cell). In order to confirm the expression of canine PD-1 and PD-L1 in the thus prepared expressing cells, intracellular localization of enhanced green fluorescent protein (EGFP) was visualized with an inverted confocal laser microscope LSM700 (ZEISS) (Maekawa N, Konnai S, Ikebuchi R. Okagawa T, Adachi M, Takagi S, Kagawa Y. Nakajima C, Suzuki Y, Murata S, Ohashi K. PLoS One. 2014 Jun. 10; 9(6):e98415).
In order to identify rat anti-bovine PD-L1 monoclonal antibody showing cross-reactivity with canine PD-L1, flow cytometry was performed using the anti-bovine PD-L1 antibody prepared in 2.1 above. The anti-bovine PD-L1 antibody (10 μg/ml) was reacted with 2×10^5-1×10^6 cells at room temperature for 30 min. After washing, the anti-bovine PD-L1 antibody was detected with allophycocyanine-labeled anti-rat Ig goat antibody (Beckman Coulter). FACS Verse (Becton, Dickinson and Company) was used for analysis. […]

B1: 4G12: rat anti-bovine PD-L1 monoclonal antibody; VL SEQ ID NO: 1, VH SEQ ID NO: 2 (antibody, listed as Rattus norvegicus, V domains shown)
VH: MGWSQIILFLVAAATCVHSQVQLQQSGAELVKPGSSVKISCKASGYTFTSNFMHWVKQQPGNGLEWIGWIYPEYGNTKYNQKFDGKATLTADKSSSTAYMQLSSLTSEDSAVYFCASEEAVISLVYWGQGTLVTVSS
VL: MESQTHVLISLLLSVSGTYGDIAITQSPSSVAVSVGETVTLSCKSSQSLLYSENQKDYLGWYQQKPGQTPKPLIYWATNRHTGVPDRFTGSGSGTDFTLIISSVQAEDLADYYCGQYLVYPFTFGPGTKLELK
For B1, the “Inhibition of porcine PD-1/PD-L1 binding” value [1] was “capable of inhibiting”, the “Binding to ovine PD-L1” value [2] was “binds to ovine and porcine PD-L1” and the “IFN-γ response of bovine PBMCs to BLV antigen” value [3] was “increases”. For the same molecule, the “Cross-reactivity with / binding to canine PD-L1” value [4] was “showed cross-reaction with canine PD-L1”.
